Measured values as given in PMC6515139, “Oligomeric Architecture of Mouse Activating Nkrp1 Receptors on Living Cells” (International Journal of Molecular Sciences, 2019).
Changes are numbered by the printed parent chain. Names may count otherwise. Blank lines part the entries; values can stand above or below the molecule they belong to.

Columns and labels:
[1] = target: EGFP-Nkrp1a_C88S (mouse (C57BL/6)) (UniProt P27811); assay: FRET or BRET; homo-FRET (steady-state fluorescence anisotropy of EGFP, time-domain, TCSPC) at the plasma membrane of living transfected Jurkat cells on PLL-coated slides, 37 °C; semi-quantitative, calibrated by monomeric LAT and dimeric CD8α
[2] = target: EGFP-Nkrp1a_C74S (mouse (C57BL/6)) (UniProt P27811); assay: as above
[3] = target: EGFP-Nkrp1c2 (mouse (C57BL/6)); assay: as above
[4] = target: EGFP-Nkrp1a_C74,88S (mouse (C57BL/6)) (UniProt P27811); assay: as above
[5] = target: the molecule itself; assay: SEC + other: SDS-PAGE under reducing and non-reducing conditions; refolded ectodomains on calibrated Superdex 75 (Nkrp1a^ECTO: 150 mM NaCl, 15 mM Tris-HCl pH 7.5; the others: 10 mM HEPES pH 7.4, 100 mM NaCl); main peaks analysed on 15% SDS-PAGE
[6] = target: the molecule itself; assay: FRET or BRET; homo-FRET (steady-state fluorescence anisotropy of EGFP, time-domain, TCSPC) at the plasma membrane of living transfected Jurkat cells on PLL-coated slides, 37 °C; semi-quantitative, calibrated by monomeric LAT and dimeric CD8α

- steady-state anisotropy, mean [1]: 0.267
- steady-state anisotropy, median [1]: 0.266
Molecule: EGFP-Nkrp1a_C88S (from UniProt P27811 1-227) (receptor)

- steady-state anisotropy, mean [2]: 0.273
- steady-state anisotropy, median [2]: 0.272
Molecule: EGFP-Nkrp1a_C74S (from UniProt P27811 1-227) (receptor)

- steady-state anisotropy, mean [3]: 0.248
- steady-state anisotropy, median [3]: 0.249
Molecule: EGFP-Nkrp1c2 (receptor)

- steady-state anisotropy, mean [4]: 0.285
- steady-state anisotropy, median [4]: 0.283
Molecule: EGFP-Nkrp1a_C74,88S (from UniProt P27811 1-227) (receptor)

B1: Nkrp1f^ECTO (domain or fragment, mouse (C57BL/6), UniProt Q8VD98 67-217, looked up)
chain: QKPPIEKCSVAAQENRTELTGRSAILECPRYWHPHWNKCLFVSQISRPWAEGRDACSMEDAILLLIENKEELRFVQNLIKGKEQLFFIGLKYVQKEKIWKWIDGSILNPNLLRITGKDKENSCAIISHTEVFSDSCSSDNHWICQKTLIHV
notes: mouse (C57BL/6) Nkrp1f ectodomain with stalk, residues Q67-V217; Cloned into pET-30a(+) between NdeI and HindIII; an initiator Met may precede Q67 (surmise); The monomeric form bears cysteamine on C74; the dimeric form has a C74-C74 disulfide; also called recombinant ectodomain of Nkrp1f
- stoichiometry N [5]: 2

B2: EGFP-Nkrp1a (receptor, mouse (C57BL/6), UniProt P27811 1-227, looked up)
chain: MDTARVYFGLKPPRTPGAWHESPPSLPPDACRCPRSHRLALKLSCAGLILLVVTLIGMSVLVRVLIQKPSIEKCYVLIQENLNKTTDCSAKLECPQDWLSHRDKCFQVSHVSNTWEEGLVDCDGKGATLMLIQDQEELRFLLDSIKEKYNSFWIGLRYTLPDMNWKWINGSTLNSDVLKITGDTENDSCAAISGDKVTFESCNSDNRWICQKELYHETLSNYVGYGH
notes: last residue H227; Vector pXJ41; also called Nkrp1a1; a1 isoform; source: Jurkat, transiently transfected, living cells; COS-7, transiently transfected, in lysate; not shown: EGFP (with spacer GSGGGS), N-terminal, kept
- steady-state anisotropy, mean [6]: 0.269
- steady-state anisotropy, median [6]: 0.271

B3: EGFP-Nkrp1c1 (receptor, mouse (C57BL/6), UniProt P27814 1-223, looked up)
chain: MDTASIYLGLKPPRTLGAWHESPPSLPPDACRCPRSHRLALKLSCAGLILLVLTLIGMSVLVRVLVQKPSREKCCVFIQENLNKTTDCSVNLECPQDWLLHRDKCFHVSQVSNTWEEGQADCGRKGATLLLIQDQEELRFLLDSIKEKYNSFWIGLRFTLPDMNWKWINGTTFNSDVLKITGVTENGSCASILGDKVTPESCASDNRWICQKELNHETPSNDS
notes: last residue S223; Vector pXJ41; also called c1 isoform; source: Jurkat, transiently transfected, living cells; COS-7, transiently transfected, in lysate; not shown: EGFP (with spacer GSGGGS), N-terminal, kept
- steady-state anisotropy, mean [6]: 0.244
- steady-state anisotropy, median [6]: 0.242

B4: Nkrp1c1^ECTO (domain or fragment, mouse (C57BL/6), UniProt P27814 70-223, looked up)
chain: SREKCCVFIQENLNKTTDCSVNLECPQDWLLHRDKCFHVSQVSNTWEEGQADCGRKGATLLLIQDQEELRFLLDSIKEKYNSFWIGLRFTLPDMNWKWINGTTFNSDVLKITGVTENGSCASILGDKVTPESCASDNRWICQKELNHETPSNDS
notes: mouse (C57BL/6) Nkrp1c isoform c1 ectodomain with stalk, residues S70-S223; Cloned into pET-30a(+) between NdeI and HindIII; an initiator Met may precede S70 (surmise); The monomeric form bears cysteamine on C88; the dimeric form has a C88-C88 disulfide; also called Nkrpc1^ECTO; recombinant ectodomain of Nkrp1c1
- stoichiometry N [5]: 2

B5: EGFP-Nkrp1f (receptor, mouse (C57BL/6), UniProt Q8VD98 1-217, looked up)
chain: MDTSKVHGNVKPFRCPGYKQASSPSFSPDACRCPHWHHLALKSGCAGLILLLLSLIGLSVLVRFLVQKPPIEKCSVAAQENRTELTGRSAILECPRYWHPHWNKCLFVSQISRPWAEGRDACSMEDAILLLIENKEELRFVQNLIKGKEQLFFIGLKYVQKEKIWKWIDGSILNPNLLRITGKDKENSCAIISHTEVFSDSCSSDNHWICQKTLIHV
notes: last residue V217; Vector pXJ41; also called f isoform; source: Jurkat, transiently transfected, living cells; COS-7, transiently transfected, in lysate; not shown: EGFP (with spacer GSGGGS), N-terminal, kept
- steady-state anisotropy, mean [6]: 0.25
- steady-state anisotropy, median [6]: 0.25

B6: EGFP-Nkrp1f_C74S (receptor, mouse (C57BL/6), UniProt Q8VD98 1-217, looked up)
chain: B5 chain with C74S
notes: Two extra C-terminal residues (Thr-Gly) possible as for m8 (surmise from the primer); also called C74S mutant of Nkrp1f; source: Jurkat, transiently transfected, living cells; COS-7, transiently transfected, in lysate; not shown: EGFP (with spacer GSGGGS), N-terminal, kept
- steady-state anisotropy, mean [6]: 0.281
- steady-state anisotropy, median [6]: 0.281
